From patent US20190194358A1 (ARIZONA BOARD OF REGENTS A BODY CORPORATE OF THE STATE OF …, published 2019)
Ends that are not written are not given here.

Experiments:
Test in all cases: Invitrogen ProtoArray Human Protein Microarray v4.0; biotinylated synbody, fluorescently labelled streptavidin; fluorescence intensity above background
ANXA1 = target: T1, ANXA1 (human, UniProt P04083)
T1 construct: GST fusion on the array
T1 sequence (looked up): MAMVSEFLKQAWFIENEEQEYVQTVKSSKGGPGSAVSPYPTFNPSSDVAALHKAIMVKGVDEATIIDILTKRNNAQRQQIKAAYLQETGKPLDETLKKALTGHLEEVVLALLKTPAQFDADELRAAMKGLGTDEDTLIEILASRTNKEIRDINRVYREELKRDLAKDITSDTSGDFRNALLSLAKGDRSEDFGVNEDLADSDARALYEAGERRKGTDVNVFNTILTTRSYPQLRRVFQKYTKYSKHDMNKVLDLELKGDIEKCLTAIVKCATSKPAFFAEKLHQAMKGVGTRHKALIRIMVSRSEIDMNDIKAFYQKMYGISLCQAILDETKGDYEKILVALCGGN
Description: (§1) The prescribed cover slip was placed over the array and adjusted to remove air bubbles. The array was incubated in a 50 ml conical tube, printed side up, for 1.5 hours at 4 C without shaking. The array was then removed from the conical tube inserted diagonally into the array chamber, kept on ice. 8 ml probing buffer was added to the chamber wall. The cover slip was removed and the array was incubated in probing buffer for 1 minute on ice. The probing buffer was decanted and drained. Two further washings were performed adding 8 ml probing buffer, incubating on ice for 1 minute, and decanting and draining. 5 nM fluorescently labeled streptavidin diluted in 6 ml probing buffer was incubated on the array for 30 minutes on ice in the dark, after which the solution was decanted and drained. Three wash steps were performed, each by adding 8 ml probing buffer, incubating for 1 minute on ice, decanting, and draining. The array was removed from the chamber, centrifuged at 800×g for 5 minutes at room temperature. The array was dried in the dark for 60 minutes at room temperature, after which it was scanned using a fluorescent microarray scanner and data was taken and analyzed.

CHAF1B = target: T2, CHAF1B (human, UniProt Q13112)
T2 construct: GST fusion on the array
Description: as §1

MCCC1 = target: T3, MCCC1 (human, UniProt Q96RQ3)
T3 construct: GST fusion on the array
T3 sequence (looked up): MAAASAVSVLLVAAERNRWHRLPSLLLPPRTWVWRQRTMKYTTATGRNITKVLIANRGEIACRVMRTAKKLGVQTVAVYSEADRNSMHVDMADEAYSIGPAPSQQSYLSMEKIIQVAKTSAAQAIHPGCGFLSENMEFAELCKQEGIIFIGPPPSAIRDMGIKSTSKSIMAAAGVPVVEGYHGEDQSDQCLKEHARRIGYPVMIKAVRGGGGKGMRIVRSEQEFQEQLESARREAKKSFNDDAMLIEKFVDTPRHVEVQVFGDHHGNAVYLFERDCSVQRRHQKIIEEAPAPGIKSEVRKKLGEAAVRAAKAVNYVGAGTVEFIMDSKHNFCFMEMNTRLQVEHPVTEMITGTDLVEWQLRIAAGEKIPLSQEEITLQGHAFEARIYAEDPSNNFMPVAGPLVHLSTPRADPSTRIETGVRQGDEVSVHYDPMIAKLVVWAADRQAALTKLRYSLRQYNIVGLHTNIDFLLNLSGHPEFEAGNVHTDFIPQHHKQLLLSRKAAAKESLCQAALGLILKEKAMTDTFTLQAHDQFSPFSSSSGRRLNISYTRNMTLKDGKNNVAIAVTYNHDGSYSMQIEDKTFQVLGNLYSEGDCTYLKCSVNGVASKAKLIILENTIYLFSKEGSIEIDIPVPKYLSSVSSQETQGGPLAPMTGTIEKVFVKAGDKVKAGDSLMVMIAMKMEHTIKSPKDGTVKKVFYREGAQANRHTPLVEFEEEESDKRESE
Description: as §1

HTN1 = target: T4, HTN1 (human, UniProt P15515, limits assumed)
T4 construct: GST fusion on the array
T4 chain (looked up): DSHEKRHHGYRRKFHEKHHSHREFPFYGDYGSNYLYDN
Description: as §1

ACTC = target: T5, ACTC (human, UniProt P68032)
T5 construct: GST fusion on the array
Description: as §1

CLEC1 = target: T6, CLEC1 (human, UniProt Q8NC01)
T6 construct: GST fusion on the array
T6 sequence (looked up): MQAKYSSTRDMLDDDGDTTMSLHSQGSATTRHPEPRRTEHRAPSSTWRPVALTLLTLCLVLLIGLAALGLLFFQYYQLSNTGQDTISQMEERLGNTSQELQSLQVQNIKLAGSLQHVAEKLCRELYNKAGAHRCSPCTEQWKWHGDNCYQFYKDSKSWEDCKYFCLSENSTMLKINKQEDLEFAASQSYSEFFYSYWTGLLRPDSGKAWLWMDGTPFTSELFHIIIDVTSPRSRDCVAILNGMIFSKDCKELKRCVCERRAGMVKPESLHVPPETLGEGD
Description: as §1

Measured: binding result

T2 sequence (Q13112 whole entry, the tested form may be a part): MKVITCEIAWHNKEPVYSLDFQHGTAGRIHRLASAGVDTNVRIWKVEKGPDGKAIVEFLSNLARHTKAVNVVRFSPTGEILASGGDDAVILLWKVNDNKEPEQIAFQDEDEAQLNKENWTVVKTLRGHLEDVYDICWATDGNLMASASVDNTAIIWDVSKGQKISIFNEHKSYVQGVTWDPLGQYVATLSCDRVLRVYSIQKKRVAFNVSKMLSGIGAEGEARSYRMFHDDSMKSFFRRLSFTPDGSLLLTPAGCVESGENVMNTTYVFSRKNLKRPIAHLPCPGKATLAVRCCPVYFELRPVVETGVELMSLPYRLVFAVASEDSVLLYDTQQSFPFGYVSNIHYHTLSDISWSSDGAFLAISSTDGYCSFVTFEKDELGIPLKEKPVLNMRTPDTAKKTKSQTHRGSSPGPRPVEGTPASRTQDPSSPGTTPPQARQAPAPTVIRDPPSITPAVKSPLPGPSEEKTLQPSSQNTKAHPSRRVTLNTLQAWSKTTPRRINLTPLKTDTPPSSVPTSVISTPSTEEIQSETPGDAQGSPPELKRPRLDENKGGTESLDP

B1: SYN23-26 (designed binder)
peptide 1: AHKVVPQRQIRHAYNRYGSG
peptide 2: FRGWAHIFFGPHVIYRGGSG
modifications: also: two chains joined by their C-termini to a branching Lys (epsilon/alpha N), Lys linker followed by Cys, Cys thiol biotinylated
notes: Lysine linker followed by cysteine; the thiol of the cysteine biotinylated for the protein array; also called anti-TRF synbody
binds: all assays above
